This series addresses T1, KmtR (UniProt O53838 1-130).
T1 sequence: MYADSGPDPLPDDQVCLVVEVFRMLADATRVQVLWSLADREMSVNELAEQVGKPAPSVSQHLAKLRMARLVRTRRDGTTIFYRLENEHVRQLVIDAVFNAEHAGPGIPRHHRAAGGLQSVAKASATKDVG
The experiment in a line: fluorescence anisotropy. In general terms: Polarisation of emitted light reports the rotation of a fluorescent probe.

B1: PRv0286 32-mer (Rv0826 promoter) (dsDNA)
DNA 1: TCCATAGTGACAACGTGCGTAGTCAGAATTCG
DNA 2: CGAATTCTGACTACGCACGTTGTCACTATGGA
Consider B1, for which the binding result is given as “no binding”.
